Test [1] addresses actin filament barbed ends elongating from unlabeled rabbit skeletal muscle actin (rabbit) (UniProt P68135). In words: single-filament microfluidics with fluorescence microscopy; survival of formin-bound barbed ends, exponential fit; 1 µM unlabeled actin, 10 µM profilin; KCl and configuration not given.
Test [2] has the same target. In words: single-filament microfluidics with fluorescence microscopy; survival of formin-bound barbed ends, exponential fit; 3 µM unlabeled actin, 10 µM profilin; KCl and configuration not given.
The target is the same in test [3]. In words: single-filament microfluidics with fluorescence microscopy; survival of formin-bound barbed ends, exponential fit; 3 µM unlabeled actin, 5 µM profilin; KCl and configuration not given.
The target is the same in test [4]. Nature of the test: single-filament microfluidics with fluorescence microscopy; survival of formin-bound barbed ends, exponential fit; 2 µM unlabeled actin, 5 µM profilin; KCl and configuration not given.
The target is the same in test [5]. Nature of the test: single-filament microfluidics with fluorescence microscopy; survival of formin-bound barbed ends, exponential fit; 1 µM unlabeled actin, no profilin; KCl and configuration not given.
Test [6] has the same target. Nature of the test: single-filament microfluidics with fluorescence microscopy; survival of formin-bound barbed ends, exponential fit; 2 µM unlabeled actin, 10 µM profilin; KCl and configuration not given.
The target is the same in test [7]. Nature of the test: single-filament microfluidics with fluorescence microscopy; survival of formin-bound barbed ends, exponential fit; 0.5 µM unlabeled actin, no profilin; KCl and configuration not given.
Test [8] has the same target. In words: single-filament microfluidics with fluorescence microscopy; survival of formin-bound barbed ends, exponential fit; 1 µM unlabeled actin, 5 µM profilin; KCl and configuration not given.
The target of the next test is mDia1 FH1 (UniProt O08808). The conditions noted are these: cited from earlier work.

Consider 2 substances from article PMC5969902.

Values joined by “and” are separate entries in the source; they are usually repeats but may differ in a detail not shown here. Identical values can stand only once. Where only a bound is given, the exact number is not on record here.

profilin, sequence (P07274 whole entry): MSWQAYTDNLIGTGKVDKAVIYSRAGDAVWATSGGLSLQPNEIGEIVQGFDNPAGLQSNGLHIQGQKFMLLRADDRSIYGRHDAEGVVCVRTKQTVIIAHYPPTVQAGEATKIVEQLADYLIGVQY

With “mDia1(FH2-DAD) (from UniProt O08808 1-1255) (domain or fragment)”, the koff was 0.0025 s⁻¹ and 0.0036 s⁻¹ in [1]; 0.0064 s⁻¹ in [2]; 0.0063 s⁻¹ and 0.0085 s⁻¹ in test [3]; 0.0042 s⁻¹ in test [4]; 0.0047 s⁻¹ and 0.0089 s⁻¹ in [5]; 0.00226 s⁻¹ in [6]. Besides, the koff in test [7] is 0.004 s⁻¹; in test [8], 0.0031 s⁻¹ and 0.0025 s⁻¹ and 0.0051 s⁻¹.

profilin (from UniProt P07274): the Kd in the test with mDia1 FH1 was more than 100 µM.
